Data as given in patent EP2225268B1.

Columns and labels:
[1] = target: Native NGAL purchased from Diagnostics Development (Uppsala, Sweden), non-reduced (UniProt P80188); experiment: … sandwich CMIA, capture HYB 211-01, detection acridinium-HYB 211-02; NGAL 5 ng/mL
[2] = target: Wild-type recombinant human NGAL dimer calibrators treated with DTT (human) (UniProt P80188); experiment: as above
[3] = target: Wild-type recombinant human NGAL dimer expressed in CHO cells (human) (UniProt P80188); experiment: as above
[4] = target: Wild-type recombinant human NGAL monomer expressed in CHO cells (human) (UniProt P80188); experiment: as above
[5] = target: Wild-type recombinant human NGAL dimer calibrators treated with DTT (human) (UniProt P80188); experiment: … sandwich CMIA, capture HYB 211-01, detection acridinium-HYB 211-02; calibrator C, NGAL 50 ng/mL
[6] = target: Wild-type recombinant human NGAL dimer expressed in CHO cells (human) (UniProt P80188); experiment: as above
[7] = target: Wild-type recombinant human NGAL monomer expressed in CHO cells (human) (UniProt P80188); experiment: as above
[8] = target: Native NGAL purchased from Diagnostics Development (Uppsala, Sweden), non-reduced (UniProt P80188); experiment: … sandwich CMIA, capture HYB 211-01, detection acridinium-HYB 211-02; NGAL 600 ng/mL
[9] = target: Wild-type recombinant human NGAL dimer calibrators treated with DTT (human) (UniProt P80188); experiment: as above
[10] = target: Wild-type recombinant human NGAL dimer expressed in CHO cells (human) (UniProt P80188); experiment: as above
[11] = target: Wild-type recombinant human NGAL monomer expressed in CHO cells (human) (UniProt P80188); experiment: as above
[12] = target: Wild-type recombinant human NGAL dimer calibrators treated with DTT (human) (UniProt P80188); experiment: … sandwich CMIA, capture HYB 211-01, detection acridinium-HYB 211-02; DTT-treated against untreated dimer calibrator; target 600 ng/mL
[13] = target: Wild-type recombinant human NGAL dimer calibrators treated with DTT (human) (UniProt P80188); experiment: … sandwich CMIA, capture HYB 211-01, detection acridinium-HYB 211-02; DTT-treated against untreated dimer calibrator; target 1000 ng/mL
[14] = target: Wild-type recombinant human NGAL dimer calibrators treated with DTT (human) (UniProt P80188); experiment: … sandwich CMIA, capture HYB 211-01, detection acridinium-HYB 211-02; DTT-treated against untreated dimer calibrator; target 50 ng/mL
[15] = target: Wild-type recombinant human NGAL monomer expressed in CHO cells (human) (UniProt P80188); experiment: … sandwich CMIA, capture 1-2322-455, detection acridinium-1-903-430; monomer calibrator plus TCEP; NGAL 50 ng/mL
[16] = target: Wild-type recombinant human NGAL monomer expressed in CHO cells (human) (UniProt P80188); experiment: … sandwich CMIA, capture 1-2322-455, detection acridinium-1-903-430; monomer calibrator plus TCEP; curve fit with monomer calibrators; target 50 ng/mL
[17] = target: Wild-type recombinant human NGAL dimer expressed in CHO cells (human) (UniProt P80188); experiment: … sandwich CMIA, capture 1-2322-455, detection acridinium-1-903-430; curve fit with monomer calibrators; target 5 ng/mL
[18] = target: Wild-type recombinant human NGAL monomer expressed in CHO cells (human) (UniProt P80188); experiment: as above
[19] = target: Wild-type recombinant human NGAL dimer calibrators with TCEP in the reaction mixture (human) (UniProt P80188); experiment: … sandwich CMIA, capture 1-2322-455, detection acridinium-1-903-430; TCEP in reaction; NGAL 50 ng/mL
[20] = target: Wild-type recombinant human NGAL dimer calibrators with TCEP in the reaction mixture (human) (UniProt P80188); experiment: … sandwich CMIA, capture 1-2322-455, detection acridinium-1-903-430; TCEP in reaction; NGAL 600 ng/mL
[21] = target: Wild-type recombinant human NGAL dimer calibrators with TCEP in the reaction mixture (human) (UniProt P80188); experiment: … sandwich CMIA, capture 1-2322-455, detection acridinium-1-903-430; TCEP in reaction; curve fit with monomer calibrators; target 5 ng/mL
[22] = target: Wild-type recombinant human NGAL dimer expressed in CHO cells (human) (UniProt P80188); experiment: … sandwich CMIA, capture 1-2322-455, detection acridinium-1-903-430; curve fit with monomer calibrators; target 250 ng/mL
[23] = target: Wild-type recombinant human NGAL monomer expressed in CHO cells (human) (UniProt P80188); experiment: as above
[24] = target: Wild-type recombinant human NGAL dimer expressed in CHO cells (human) (UniProt P80188); experiment: … sandwich CMIA, capture 1-2322-455, detection acridinium-1-903-430; NGAL Dimer Low, 150 ng/mL dimer calibrator

Molecule: anti-NGAL antibody HYB 211-01 from AntibodyShop A/S, Gentofte, Denmark
- RLUs [1]: 15300 RLUs
- RLUs [2]: 11400 RLUs
- RLUs [3]: 4050 RLUs
- RLUs [4]: 12000 RLUs
- RLUs [5]: 101000 RLUs
- RLUs [6]: 31500 RLUs
- RLUs [7]: 101000 RLUs
- RLUs [8]: 1.07e+06 RLUs
- RLUs [9]: 676000 RLUs
- RLUs [10]: 282000 RLUs
- RLUs [11]: 691000 RLUs
- % Increase due to DTT [12]: 256%
- % Increase due to DTT [13]: 277%
- % Increase due to DTT [14]: 247%

B1: antibody produced by murine hybridoma cell line 1-2322-455 having ATCC Accession No. PTA-8024 (antibody, V domains shown)
VH: EVQLVESGGGLVQPGGSLKLSCAASGFTFNNYYMSWVRQTPERRLEWVAYISSSGGSTYYSDSVRGRFTISRDTARNTLYLQMTSLKSEDTAMYYCARHFGDYSYFDYWGQGTTLTVSS
VL: DIQMTQSPASLSASVGETVTITCRASENFYSYLAWYQQKQGKSPQLLVYNAKTLAEGVPSRFSGSGSGTQFSLKINSLQPEDFGTYYCQHHYDIPLTFGAGTKLELKR
- RLUs [15]: 241000 RLUs
- Curve Fit Results [16]: 48.6 ng/mL
- Curve Fit Results [17]: 1.2 ng/mL
- Curve Fit Results [18]: 4.7 ng/mL
- RLUs [19]: 132000 RLUs
- RLUs [20]: 989000 RLUs
- Curve Fit Results [21]: 2.2 ng/mL
- Curve Fit Results [22]: 71.7 ng/mL
- Curve Fit Results [23]: 255 ng/mL
- NGAL concentration detected [24]: 33.9 ng/mL
